Source: patent US20200255508A1
Where two headings read alike, the source gives them in different places.

Tests used:
[1] = biological target: cyno DLL4-his (cynomolgus monkey); assay: ELISA on DLL4-his
[2] = biological target: cyno DLL4-his (cynomolgus monkey); assay: ELISA on DLL4-his; remark: listed apart in the source
[3] = biological target: cynomolgus monkey DLL4 extracellular domain (cynomolgus monkey); assay: Biacore SPR
[4] = biological target: cynomolgus monkey DLL4 extracellular domain (cynomolgus monkey); assay: Biacore SPR; remark: listed apart in the source
[5] = biological target: cynomolgus monkey DLL4 extracellular domain (cynomolgus monkey); assay: competition ELISA, competitor huNotch-1
[6] = biological target: cynomolgus monkey DLL4 extracellular domain (cynomolgus monkey); assay: capture ELISA

Binder | EC50 [1] | EC50 [2] | Kd [3] | Kd [4] | IC50 [5] | koff [3] | kon [3] | EC50 [6]
E9.1 (antibody, human IgG1, V domains shown) VH: EVQLQESGPGLVKPSETLSLTCTVSGGSISSSSYYWGWIRQPPGKGLEWIGDIYYTGSTYYNPSLKSRVTISVDTSKNQFSLKLSSVTAADTAVYYCAREDVILRGGSDYWGQGTLVTVSS VL: SYELTQPPSVSVSPGQTASITCSGQRLGDKYASWYQQKPGQSPVLVIYEDSKRPSGIPERFSGSNSGDTATLTISGTQPMDEADYYCQAWDRDTGVFGYGTRVTVLG | 0.035 nM | 0.24 nM | 4.08 nM | 0.47 nM | – | – | – | –
E9.19 (antibody, V domains shown) VH: EVQLQESGPGLVKPSETLSLTCTVSGGSISSSSYYWGWIRQPPGKGLEWIGDIYYTGSTYYNPSLKSRVTISVDTSKNQFSLKLSSVTAADTAVYYCARFDVSLGGGSDTWGQGTLVTVSS VL: SYELTQPPSVSVSPGQTASITCSGQRLGDKYASWYQQKPGQSPVLVIYEDSKRPSGIPERFSGSNSGDTATLTISGTQPMDEADYYCQAWDRDTGVFGYGTKVTVL | – | – | 0.25 nM | – | 1.5 nM | 4.86e-05 s⁻¹ | 192000 M⁻¹ s⁻¹ | 0.46 nM
E9.2B (antibody, V domains shown) VH: EVQLQESGPGLVKPSETLSLTCTVSGGSISSSNYYWGWIRQPPGKGLEWIGDINYNGNTYYNPSLKSRVTISVDTSKNQFSLKLSSVTAADTAVYYCAREAVALGGGADDWGQGTLVTVSS VL: SYELTQPPSVSVSPGQTASITCSGEGLGDKYVSWYQQKPGQSPVLVIYEDSTRPSGIPERFSGSNSGDTATLTISGTQPMDEADYYCQAWDSETGVFGSGTKVTVL | – | – | – | – | 2.2 nM | – | – | 0.45 nM
E9 (antibody, IgG1, V domains shown) VH: EVQLQESGPGLVKPSETLSLTCTVSGGSISSSSYYWGWIRQPPGKGLEWIGDIYYTGSTYYNPSLKSRVTISVDTSKNQFSLKLSSVTAADTAVYYCAREDVILRGGSDYWGQGTLVTVSS VL: SYELTQPPSVSVSPGQTASITCSGQRLGDKYASWYQQKPGQSPVLVIYEDSKRPSGIPERFSGSNSGDTATLTISGTQPMDEADYYCQAWDRDTGVFGYGTRVTVL | – | – | 4.2 nM | – | 2.1 nM | 7.4e-05 s⁻¹ | 18000 M⁻¹ s⁻¹ | 0.4 nM
E9.71 (antibody, V domains shown) VH: EVQLQESGPGLVKPSETLSLTCTVSGGSISSSSYYWGWIRQPPGKGLEWIGDIYYTGSTYYNPSLKSRVTISVDTSKNQFSLKLSSVTAADTAVYYCARQALAMGGGSDKWGQGTLVTVSS VL: SYELTQPPSVSVSPGQTASITCSGQRLGDKYASWYQQKPGQSPVLVIYEDSKRPSGIPERFSGSNSGDTATLTISGTQPMDEADYYCQAWDRDTGVFGYGTKVTVL | – | – | 0.49 nM | – | 2 nM | 3.79e-05 s⁻¹ | 77500 M⁻¹ s⁻¹ | 0.44 nM
E9-FR1 (antibody, V domains shown) VH: EVQLVQSGTEVKKPGESLKISCKVSGGSISSSSYYWGWIRQMPGKGLEWIGDIYYTGSTYYNPSLKSQVTISVDTSFNTFFLQWSSLKASDTAMYYCAREDVILRGGSDYWGQGTMVTVSS VL: EYVLTQSPATLSVSPGERATLSCSGQRLGDKYASWYQQKPGQSPRLVIYEDSKRPSDIPARFSGSNSGDEATLTISSLQSEDFAVYYCQAWDRDTGVFGQGTRLEIKR | 0.12 nM | – | – | 0.74 nM | – | – | – | –
E9-FR2 (antibody, V domains shown) VH: EVTLRESGPALVKPTQTLTLTCTVSGGSISSSSYYWGWIRQPPGKGLEWIGDIYYTGSTYYNPSLKSRVTISVDTSKNQFVLTMTNMDPVDTATYYCAREDVILRGGSDYWGQGTTVTVSS VL: DYVLTQSPDSLAVSLGERATINCSGQRLGDKYASWYQQKPGQSPKLVIYEDSKRPSGIPDRFSGSNSGDDATLTISSLQAEDVAVYYCQAWDRDTGVFGGGTKVEIKR | 0.12 nM | – | – | 0.3 nM | – | – | – | –
A10 (antibody, IgG1, V domains shown) VH: EVQLLESGGGLVKSGGSLRLSCAASGFTFRSHWMSWVRQAPGKGLEWVAIISYDGSNKYSADSVKGRFTISRDNSKNTLYLQLNSLRAEDTAVYYCAKAGGGNVGFDIWGQGTMVTVSS VL: LPVLTQPPSVSVSPGQTASITCSADKLGTKYVSWYQQKPGQSPVLVIYQDAKRPSGIPERFSGSNSGNTATLTISGTQTMDEADYLCQSWDRSDVVFGGGTKVTVL | – | – | 7.8 nM | – | 5.1 nM | 0.00015 s⁻¹ | 19000 M⁻¹ s⁻¹ | 0.44 nM
